Test system: pentasaccharide bound plasma antithrombin (plasma anti-factor Xa activity)
Assay: Rotachrom heparin anti factor Xa assay in pentasaccharide containing human plasma (competition with plasma antithrombin for pentasaccharide binding)
Assay type: biochemical
Settings: for effect on anti-Xa activity of pentasaccharide containing plasma sample: human plasma, pre-incubation 30 min at 37° C.; for virtual pentasaccharide concentration (residual anti-factor Xa activity): human plasma pool with 3 μg/ml pentasaccharide
Procedure: Anti factor Xa inhibitory activity of mutated antithrombins AT-R393H(SEQ ID NO: 4), AT-Pro394 (SEQ ID NO: 6), AT-ΔR393-5394 (SEQ ID NO: 18), AT-ΔR393 (SEQ ID NO: 8), AT-ΔS394 (SEQ ID NO: 10), AT-N135Q-R393H(SEQ ID NO: 14), AT-N135Q-Pro394 (SEQ ID NO: 16), AT-N135Q-ΔR393-S394 (SEQ ID NO: 24), AT-N135Q-ΔR393 (SEQ ID NO: 20), AT-N135Q-ΔS394 (SEQ ID NO: 22) is measured in pentasaccharide containing plasma. The plasma concentrations of pentasaccharides are defined on the basis on those measured in patients treated by the pentasaccharide under the conditions of a regular (curative) use of this molecule or in patients presenting an overdose of this drug, knowing that the optimal equilibrium concentration is 1.20-1.26 mg/L and the minimal equilibrium concentration is 0.46-0.62 mg/L during a curative pentasaccharide treatment (monograph, Arixtra®).
The anti factor Xa assay is performed using the Rotachrom® heparin method (Stago) adaptated for absorbance reading on a microplate reader (Dynatech MR 5000), or a STA analyser (Stago).
The procedure consists in mixing 30 μl of pentasaccharide containing plasma sample diluted four times in kinetic buffer, with 75 μl of chromogenic substrate (1 mM, provided in Rotachrom® heparin kit). After 4 min incubation, 75 μl of bovine factor Xa (24 nM, Rotachrom® heparin kit) is added to the plasma-substrate mixture. The factor Xa activity is measured a 405 nm absorbance increase, resulting from cleavage of the chromogenic substrate, using a microplate reader (Dynatech MR 5000). The rate constant (k), proportional to anti-factor Xa activity, is obtained by fitting the substrate hydrolysis curve to equation (3) or (3′).
Firstly, the assay is calibrated in citrated (0.105 M) normal human plasma containing pentasaccharide concentrations ranging from 0 to 3 mg/L. A standard curve is generated and anti-factor Xa activity is expressed as mg of pentasaccharide per liter of plasma.
Secondly, to evaluate the anti factor Xa inhibitory activity of mutated antithrombins, the mutated antithrombin (0-0.6 g/L, preferably 0.15-0.6 g/L, final concentration, in kinetic buffer) is pre-incubated with an equal volume of pentasaccharide (0-3 mg/L, preferably 1-3 mg/L) containing plasma samples, during 30 min at 37° C.
Under these conditions, the mutated antithrombin concentration range from one to four times that of the plasma antithrombin level, which is compatible with a therapeutic use of antithrombin. Indeed, very high doses of mutated antithrombin, with a 5 fold increase in plasma antithrombin level, have already been used during clinical trials without side effects (Leitner J M, Firbas C, Mayr F B, Reiter R A, Steinlechner B, Jilma B., Recombinant human antithrombin inhibits thrombin formation and interleukin 6 release in human endotoxemia. Clin Pharmacol Ther. 2006 January; 79(1):23-34). Anti factor Xa inhibitory activity is then evaluated as previously described.
To estimate whether mutated antithrombin can be used as reversal of pentasaccharide in case of over-dosing, AT-N135Q-R393H(SEQ ID NO: 14) and AT-N135Q-Pro394 (SEQ ID NO: 16) are tested in Rotachrom® heparin assay for their ability to restore factor Xa activity. Under conditions of treatment for prevention of venous thromboembolic events, optimal pentasaccharide concentration ranges between 1.2 and 1.26 μg/mL in plasma. To mimic an over-dosing, pentasaccharide is added to human plasma pool at concentration of 3 μg/ml. Rotachrom® heparin assay is then performed by incubation of plasma over-dosed with pentasaccharide in the presence of mutated antithrombin in a ratio 1/1, 2/1, and 4/1 compared to plasma antithrombin concentration (i.e. 0.15, 0.3, 0.6 g/l). In this ex vivo assay, anti-factor Xa activity is proportional to the amount of pentasaccharide bound natural antithrombin present in tested plasma, which amount is directly proportional to pentasaccharide concentration in plasma. […]

[1] = mutated antithrombin ratio 1/1 to plasma antithrombin (0.15 g/l)

effect on anti-Xa activity of pentasaccharide containing plasma sample | Molecule | further results
significant decrease | AT-R393H: human antithrombin (SEQ ID NO:2) with substitution of the amino acid at position 393 by Histidine | 
significant decrease | AT-N135Q-ΔR393: human antithrombin with deletion of position 393 and substitution at 135 by Glutamine (protein, listed as Homo sapiens) HGSPVDICTAKPRDIPMNPMCIYRSPEKKATEDEGSEQKIPEATNRRVWELSKANSRFATTFYQHLADSKNDNDNIFLSPLSISTAFAMTKLGACNDTLQQLMEVFKFDTISEKTSDQIHFFFAKLNCRLYRKAQKSSKLVSANRLFGDKSLTFNETYQDISELVYGAKLQPLDFKENAEQSRAAINKWVSNKTEGRITDVIPSEAINELTVLVLVNTIYFKGLWKSKFSPENTRKELFYKADGESCSASMMYQEGKFRYRRVAEGTQVLELPFKGDDITMVLILPKPEKSLAKVEKELTPEVLQEWLDELEEMMLVVHMPRFRIEDGFSLKEQLQDMGLVDLFSPEKSKLPGIVAEGRDDLYVSDAFHKAFLEVNEEGSEAAASTAVVIAGSLNPNRVTFKANRPFLVFIREVPLNTIIFMGRVANPCVK | 
significant decrease | AT-N135Q-ΔS394: human antithrombin with deletion of position 394 and substitution at 135 by Glutamine (protein, listed as Homo sapiens) HGSPVDICTAKPRDIPMNPMCIYRSPEKKATEDEGSEQKIPEATNRRVWELSKANSRFATTFYQHLADSKNDNDNIFLSPLSISTAFAMTKLGACNDTLQQLMEVFKFDTISEKTSDQIHFFFAKLNCRLYRKAQKSSKLVSANRLFGDKSLTFNETYQDISELVYGAKLQPLDFKENAEQSRAAINKWVSNKTEGRITDVIPSEAINELTVLVLVNTIYFKGLWKSKFSPENTRKELFYKADGESCSASMMYQEGKFRYRRVAEGTQVLELPFKGDDITMVLILPKPEKSLAKVEKELTPEVLQEWLDELEEMMLVVHMPRFRIEDGFSLKEQLQDMGLVDLFSPEKSKLPGIVAEGRDDLYVSDAFHKAFLEVNEEGSEAAASTAVVIAGRLNPNRVTFKANRPFLVFIREVPLNTIIFMGRVANPCVK | 
significant decrease | AT-N135Q-ΔR393-S394: human antithrombin with deletion of positions 393 and 394 and substitution at 135 by Glutamine (protein, listed as Homo sapiens) HGSPVDICTAKPRDIPMNPMCIYRSPEKKATEDEGSEQKIPEATNRRVWELSKANSRFATTFYQHLADSKNDNDNIFLSPLSISTAFAMTKLGACNDTLQQLMEVFKFDTISEKTSDQIHFFFAKLNCRLYRKAQKSSKLVSANRLFGDKSLTFNETYQDISELVYGAKLQPLDFKENAEQSRAAINKWVSNKTEGRITDVIPSEAINELTVLVLVNTIYFKGLWKSKFSPENTRKELFYKADGESCSASMMYQEGKFRYRRVAEGTQVLELPFKGDDITMVLILPKPEKSLAKVEKELTPEVLQEWLDELEEMMLVVHMPRFRIEDGFSLKEQLQDMGLVDLFSPEKSKLPGIVAEGRDDLYVSDAFHKAFLEVNEEGSEAAASTAVVIAGLNPNRVTFKANRPFLVFIREVPLNTIIFMGRVANPCVK | 
significant decrease | AT-ΔR393-S394: human antithrombin with deletion of the amino acids at positions 393 and 394 (protein, listed as Homo sapiens) HGSPVDICTAKPRDIPMNPMCIYRSPEKKATEDEGSEQKIPEATNRRVWELSKANSRFATTFYQHLADSKNDNDNIFLSPLSISTAFAMTKLGACNDTLQQLMEVFKFDTISEKTSDQIHFFFAKLNCRLYRKANKSSKLVSANRLFGDKSLTFNETYQDISELVYGAKLQPLDFKENAEQSRAAINKWVSNKTEGRITDVIPSEAINELTVLVLVNTIYFKGLWKSKFSPENTRKELFYKADGESCSASMMYQEGKFRYRRVAEGTQVLELPFKGDDITMVLILPKPEKSLAKVEKELTPEVLQEWLDELEEMMLVVHMPRFRIEDGFSLKEQLQDMGLVDLFSPEKSKLPGIVAEGRDDLYVSDAFHKAFLEVNEEGSEAAASTAVVIAGLNPNRVTFKANRPFLVFIREVPLNTIIFMGRVANPCVK | 
significant decrease | AT-N135Q-Pro394: human antithrombin with Proline inserted between 393 and 394 and substitution at 135 by Glutamine (protein, listed as Homo sapiens) HGSPVDICTAKPRDIPMNPMCIYRSPEKKATEDEGSEQKIPEATNRRVWELSKANSRFATTFYQHLADSKNDNDNIFLSPLSISTAFAMTKLGACNDTLQQLMEVFKFDTISEKTSDQIHFFFAKLNCRLYRKAQKSSKLVSANRLFGDKSLTFNETYQDISELVYGAKLQPLDFKENAEQSRAAINKWVSNKTEGRITDVIPSEAINELTVLVLVNTIYFKGLWKSKFSPENTRKELFYKADGESCSASMMYQEGKFRYRRVAEGTQVLELPFKGDDITMVLILPKPEKSLAKVEKELTPEVLQEWLDELEEMMLVVHMPRFRIEDGFSLKEQLQDMGLVDLFSPEKSKLPGIVAEGRDDLYVSDAFHKAFLEVNEEGSEAAASTAVVIAGRPSLNPNRVTFKANRPFLVFIREVPLNTIIFMGRVANPCVK | virtual pentasaccharide concentration (residual anti-factor Xa activity) [1]: 1.16 µg/mL; virtual pentasaccharide concentration (residual anti-factor Xa activity) (ratio 2/1 (0.3 g/l)): 0.59 µg/mL; virtual pentasaccharide concentration (residual anti-factor Xa activity) (ratio 4/1 (0.6 g/l)): 0.36 µg/mL
significant decrease | AT-Pro394: human antithrombin with insertion of a Proline between positions 393 and 394 (protein, listed as Homo sapiens) HGSPVDICTAKPRDIPMNPMCIYRSPEKKATEDEGSEQKIPEATNRRVWELSKANSRFATTFYQHLADSKNDNDNIFLSPLSISTAFAMTKLGACNDTLQQLMEVFKFDTISEKTSDQIHFFFAKLNCRLYRKANKSSKLVSANRLFGDKSLTFNETYQDISELVYGAKLQPLDFKENAEQSRAAINKWVSNKTEGRITDVIPSEAINELTVLVLVNTIYFKGLWKSKFSPENTRKELFYKADGESCSASMMYQEGKFRYRRVAEGTQVLELPFKGDDITMVLILPKPEKSLAKVEKELTPEVLQEWLDELEEMMLVVHMPRFRIEDGFSLKEQLQDMGLVDLFSPEKSKLPGIVAEGRDDLYVSDAFHKAFLEVNEEGSEAAASTAVVIAGRPSLNPNRVTFKANRPFLVFIREVPLNTIIFMGRVANPCVK | virtual pentasaccharide concentration at 2 or 4 fold molar excess compared to natural antithrombin (human plasma with 3 μg/ml pentasaccharide): decreases to a level comparable to curative pentasaccharide treatment; effect on anti-factor Xa activity at concentration equal to plasmatic antithrombin concentration (human plasma with 3 μg/ml pentasaccharide, ratio 1/1): significantly decrease

Molecule | effect on anti-Xa activity of pentasaccharide containing plasma sample | further results
AT-N135Q-R393H: human antithrombin with substitution at 393 by Histidine and at 135 by Glutamine | significant decrease | virtual pentasaccharide concentration (residual anti-factor Xa activity) [1]: 1.04 µg/mL; virtual pentasaccharide concentration (residual anti-factor Xa activity) (ratio 2/1 (0.3 g/l)): 0.49 µg/mL; virtual pentasaccharide concentration (residual anti-factor Xa activity) (ratio 4/1 (0.6 g/l)): 0.29 µg/mL
